Biological target: T1, yeast Rnr1p (Saccharomyces cerevisiae, UniProt P21524)
T1 construct: made in house; host or cells: E. coli BL21 (DE3), pET3a
T1 sequence (P21524 1-888): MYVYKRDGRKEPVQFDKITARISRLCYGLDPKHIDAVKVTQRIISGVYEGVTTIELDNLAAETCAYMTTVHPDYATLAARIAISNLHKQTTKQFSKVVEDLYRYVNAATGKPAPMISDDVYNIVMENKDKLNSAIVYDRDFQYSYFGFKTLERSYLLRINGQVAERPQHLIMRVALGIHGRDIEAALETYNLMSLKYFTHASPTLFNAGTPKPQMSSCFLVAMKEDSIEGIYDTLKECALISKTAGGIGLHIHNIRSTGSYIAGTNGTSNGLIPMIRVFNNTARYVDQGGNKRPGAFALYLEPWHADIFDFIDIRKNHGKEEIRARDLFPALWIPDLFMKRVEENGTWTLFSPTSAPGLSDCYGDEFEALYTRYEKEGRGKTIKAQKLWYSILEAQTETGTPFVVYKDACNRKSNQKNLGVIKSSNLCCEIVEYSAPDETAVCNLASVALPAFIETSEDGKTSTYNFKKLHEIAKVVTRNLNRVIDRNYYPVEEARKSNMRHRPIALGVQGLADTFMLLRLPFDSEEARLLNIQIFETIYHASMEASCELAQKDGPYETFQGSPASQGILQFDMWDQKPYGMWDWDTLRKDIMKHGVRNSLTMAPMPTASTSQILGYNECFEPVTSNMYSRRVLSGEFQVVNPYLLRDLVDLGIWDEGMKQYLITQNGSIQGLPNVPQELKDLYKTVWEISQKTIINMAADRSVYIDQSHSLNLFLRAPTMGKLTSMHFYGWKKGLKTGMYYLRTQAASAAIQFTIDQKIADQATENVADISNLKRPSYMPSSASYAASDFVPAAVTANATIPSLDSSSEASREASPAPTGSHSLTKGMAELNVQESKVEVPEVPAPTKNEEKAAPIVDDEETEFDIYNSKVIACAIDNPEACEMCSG
Test: BIAcore biosensor analysis, immobilized Sml1p and yeast Rnr1p
Format: binding
Experimental: BIAcore biosensor analysis. The interaction between Sml1p and either yeast Rnr1p or mouse R1 protein was studied by biosensor analysis using the BIAcore method (Biacore AB). The Sml1 protein was prepared in 10 mM sodium acetate, pH 5.2, at a concentration of 0.44 mg/ml; it was then immobilized on the dextran layer of the sensor chip as described previously for the mouse R2 protein (17). The ligand proteins were equilibrated with running buffer (10 mM Hepes-KOH, pH 7.4, 200 mM potassium acetate, 1 mM EDTA, 5 mM magnesium acetate and 0.05% Surfactant P20 (BIAcore). The interactions were studied at a constant temperature of 22° C. and a constant flow of 5 μl/min. Kinetics for the interaction of Sml1p with yeast Rnr1p was determined by allowing the immobilized Sml1p to interact with increasing concentrations of Rnr1p (18). The resonance unit (RU) is proportional to the mass, and 1 RU corresponds to a surface concentration of 1 pg of protein/mm^2 of the 100 nm thick dextran layer (19).
Kinetic studies of the interaction between the Rnr1 and Sml1 proteins using a biosensor technique. To obtain a quantitative description of the Rnr1p and Sml1p interaction, we immobilized the Sml1 protein to the dextran layer of a sensor chip, and then injected a series of solutions containing increasing concentrations of Rnr1p to the same sensor chip. The immobilization of Sml1p at a concentration of 0.44 mg/ml gave an increase of 91 resonance units (RU), which correspond to 91 pg/mm^2. With a surface of 0.8 mm 2, 91 RU corresponds to a total of 72.8 pg of bound Sml1p, which can be compared with the total injected amount of 15.4 μg. This low degree of attachment (only 0.0005%) makes it unlikely that the protein is attached to multiple binding sites.
In control experiments, where the same series of Rnr1p solutions passed a sensor chip without immobilized Sml1p, a “bulk effect” gave a response of only about 60 RU. The same background value of about 60 RU was observed when bovine serum albumin or Rnr2p/Rnr4p heterodimer was injected at a concentration of 0.1 mg/ml (data not shown). In FIG. 1B, the response at equilibrium is plotted against the concentration of injected Rnr1p. […] These values correspond to 691 pg/mm^2 or a total of 553 pg or 5.5 fmol Rnr1p monomer bound to about 6.2 fmol immobilized Sml1p, i.e. nearly one Rnr1p monomer bound per molecule of immobilized Sml1p. […] Calculating the equilibrium dissociation constant from these rate constants gave a K0 of about 0.25 μM, which is close to the directly determined K0.

[1] = BIAevaluation software, lower curves of FIG. 12A

B1: Sml1p: 104 amino acid yeast protein encoded by YML058w (SML1) that binds Rnr1 and inhibits ribonucleotide reductase; recombinant, expressed in E. coli (protein)
chain: MQNSQDYFYAQNRCQQQQAPSTLRTVTMAEFRRVPLPPMAEVPMLSTQNSMGSSASASASSLEMWEKDLEERLNSIDHDMNNNKFGSGELKSMFNQGKVEEMDF
- association rate constant [1]: about 153000 M^1s^−1
- dissociation rate constant [1]: 0.04 s⁻¹
- maximal binding (Rnr1p bound to immobilized Sml1p (91 RU)): 691 RU
- Kd (immobilized Sml1p, mobile phase Rnr1p, 22° C., response at equilibrium fitted to one site binding model, read-out: equilibrium dissociation constant (KD)): 400 nM
